In assay [1] the target is canine IL-31Rα (canine). Put plainly: ELISA, plate coated with cIL-31Rα at 1 µg/mL, detection with HRP anti-dog IgG Fc, OD450/540. A general note: In an ELISA, binding on a coated surface is turned into a signal by an enzyme label.
Assay [2] addresses canine IL-31Rα (canine). Put plainly: ELISA, plate coated with cIL-31Rα at 1 µg/mL, detection with HRP anti-dog IgG Fc, OD450/540nm.
A further assay deals with T1, canine IL-13 (canine, UniProt Q9N0W9 19-131, limits assumed, biotin-labeled in the OCTET assay).
T1 construct: also called cIL-13; canine Interleukin-13
T1 sequence (looked up): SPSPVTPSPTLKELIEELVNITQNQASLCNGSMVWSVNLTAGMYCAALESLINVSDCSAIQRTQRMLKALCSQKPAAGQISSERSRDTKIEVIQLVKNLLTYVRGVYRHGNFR
Put plainly: BLI (OCTET HTX), biotin-cIL-13 on SA biosensors. The method, then:
The binding constants for the cFc fusion proteins provided in Tables 3 and 4 below, were determined using OCTET® HTX. All kinetics measurements were performed by OCTET® HTX using SA® biosensors and DATA ACQUISITION® 12.0 software. 10 μg/mL of biotin-labeled antigen, either canine IL-4 (cIL-4) or canine IL-13 (cIL-13) were loaded onto the SA® biosensors for 120 seconds. Next, the biosensors were placed into 1×pH 7.0 TBS/Casein buffer for 60 seconds for the blocking phase. For the association phase, antigen loaded biosensors were placed into 2-fold serial dilutions from 1 μM down to 15.6 nM of the wild-type, the bispecific, or the FcRn-mutant receptor Fc-fusions that recognized the cIL-4 or cIL-13 antigen in 1×pH 7.0 TBS/Casein buffer for 30 seconds. The last well was buffer alone and that sensor was used for reference sensor subtraction. Finally, the biosensors were placed into 1×pH 7.0 TBS/Casein buffer for 120 seconds for the dissociation phase. The results were then analyzed using Data Analysis 12.0 software and the curves were fitted using a 1:1 binding model.

The text below walks through data of patent US20240368249A1 (INTERVET, published 2024).

B1: Caninized 44E2 H5k1 (antibody, V domains shown)
VH: ELTLQESGPGLVKPSQTLSLTCTVSGFSLTSNGVSWIRQRPGRGLEWMGAISSGGSTYYNSVLKSRISITADTAKNQFSLQLSSMTTEDTAVYYCARRLSGYNYVPFAYWGQGTLVTVSS
VL: EIVMTQSPASLSLSQEEKVTITCKASQNIYKHLAWYQQKPGQAPKLLIYNANSLQTGVPSRFSGSGSGTDFSFTISSLEPEDVAVYYCQQYYSGDTFGAGTKVELKR
Take B1: the EC50 (usually the midpoint of the concentration-response curve) in the assay with canine IL-31Rα (canine) [1] worked out at 1.35 ng/mL.

B2: Caninized 44E2 H5k2 (antibody, V domains shown)
VH: ELTLQESGPGLVKPSQTLSLTCTVSGFSLTSNGVSWIRQRPGRGLEWMGAISSGGSTYYNSVLKSRISITADTAKNQFSLQLSSMTTEDTAVYYCARRLSGYNYVPFAYWGQGTLVTVSS
VL: EIVMTQSPASLSLSQEEKVTITCKASQNIYKHLAWYQQKPGQAPKLLIYNANSLQTGIPSRFSGSGSGTDFSFTISSLEPEDVAVYFCQQYYSGDTFGAGTKVELKR
Turning to B2, in the assay with canine IL-31Rα (canine) [1], the EC50 came to 3.97 ng/mL.

B3: Chimeric rat/canine 10A12 (antibody, V domains shown)
VH: EVQLVESGGGLVKPGRSMKLSCAASGFTFSNYYMAWVRQAPTKGLEWVASISTGGGNTYYRDSVKGRFTISRDNAKRTLYLQMDSLRSEDTATYYCGRHGTLYFDYWGQGVMVTVSS
VL: QFTLTQPKSVSGSLRSTITIPCERSSGDIGDSYVSWYQQHLGRPPINVIYVDDQRPSEVSDRFSGSIDSSSNSASLTITDLQMDDEADYFCQSYDSNIDGPVFGGGTKLTVLG
The molecule B3 displayed an EC50 with canine IL-31Rα (canine) [2] of 0.518 ng/mL.

B4: Chimeric rat/canine 44E2 (antibody, V domains shown)
VH: QVQLKESGPGLVQPSQTLSLTCTVSGFSLTSNGVSWVRQPPGKGLEWIAAISSGGSTYYNSVLKSRLSISRDTSKSQVFLKMNSLQTEDTAIYFCTRRLSGYNYVPFAYWGQGTLVTVSS
VL: DIQMTQSPSLLSASVGDRVTLNCKASQNIYKHLAWCQQKLGEPPNLLISNANSLQTGIPSRFSGSGSGTDFTLTISSLQPEDVATYFCQQYYSGDTFGAGTKLELKR
As for B4, in the assay with canine IL-31Rα (canine) [1], the EC50 is 1.37 ng/mL.

B5: cIL-13Rα1-cIgGB-Fc-YTE CH2 Numbering (L18Y/A20T/T22E) (Fc fusion)
chain: GGVAAPTETQPPVTNLSVSVENLCTVIWTWDPPEGASPNCTLRYFSHFDNKQDKKIAPETHRSKEVPLNERICLQVGSQCSTNESDNPSILVEKCTPPPEGDPESAVTELQCVWHNLSYMKCTWLPGRNTSPDTNYTLYYWHSSLGKILQCEDIYREGQHIGCSFALTNLKDSSFEQHSVQIVVKDNAGKIRPSFNIVPLTSHVKPDPPHIKRLFFQNGNLYVQWKNPQNFYSRCLSYQVEVNNSQTETNDIFYVEEAKCQNSEFEGNLEGTICFMVPGVLPDTLNTVRIRVRTNKLCYEDDKLWSNWSQAMSIGENTDPTPKRENGRVPRPPDCPKCPAPEMLGGPSVFIFPPKPKDTLYITREPEVTCVVVDLDPEDPEVQISWFVDGKQMQTAKTQPREEQFNGTYRVVSVLPIGHQDWLKGKQFTCKVNNKALPSPIERTISKARGQAHQPSVYVLPPSREELSKNTVSLTCLIKDFFPPDIDVEWQSNGQQEPESKYRTTPPQLDEDGSYFLYSKLSVDKSRWQRGDTFICAVMHEALHNHYTQESLSHSPGK
notes: Homodimer; also called cIL-13Rα1-cFc-YTE
With B5, the “fold decrease in affinity against the unmodified cIL-13Rα1-cFc” value with canine IL-13 was around 4 fold decrease.

B6: Caninized 10A12 H1L5 (antibody, V domains shown)
VH: EVQLVESGGDLVKPGGSLRLSCVASGFTFSNYYMAWVRQAPGKGLQWVASISTGGGNTYYRDSVKGRFTISRDNAKNTLYLQMNSLRAEDTAMYYCAKHGTLYFDYWGQGTLVTVSS
VL: QPVLTQPPSLSASLGTTARLTCERSSGDIGDSYVSWYQQKPGSPPRDLLYVDDQRPSGVSKSFSGSKDTSANAGLLLISGLQPEDEADYYCQSYDSNIDGPVFGGGTHLTVLG
B6 displayed an EC50 with canine IL-31Rα (canine) [2] of 13.5 ng/mL.

B7: Caninized 10A12 H2L6 (antibody, V domains shown)
VH: EVQLVESGGDLVKPGGSLRLSCAASGFTFSNYYMAWVRQAPGKGLQWVASISTGGGNTYYRDSVKGRFTISRDNAKNTLYLQMNSLRAEDTAMYYCARHGTLYFDYWGQGTLVTVSS
VL: QPVLTQPPSLSASLGTTARLTCERSSGDIGDSYVSWYQQKPGSPPRDVIYVDDQRPSEVSKSFSGSKDTSANAGLLLISGLQPEDEADYFCQSYDSNIDGPVFGGGTHLTVLG
In turn, B7 returned an EC50 in the assay with canine IL-31Rα (canine) [2] of 0.34 ng/mL.

B8: Chimeric rat/canine 28F12 (antibody, V domains shown)
VH: EVQLVESDGGLAQPGRSLKLSCAASGFTFSDYYMAWVRQAPTKGLEWVATISYDGSSTYYRDSVRGRFTISRDNAKSTLYLQMDSLRSEDTATYYCARGPLTDWAPNWFAYWGQGTLVTVSS
VL: DIQMTQSPASLSASLGETVTIQCQTSEDIYSGLAWYQQKPGKSPQFLIYGASRLEDGVPSRFSGSGSGTQYSLKISSMQTEDEGVYFCQQGLKYPNTFGAGTKLELKR
As to B8, in the assay with canine IL-31Rα (canine) [1], the EC50 amounted to 1.66 ng/mL and the EC50 (read off the curve) (usually the concentration at which the effect is half-maximal) was 1 ng/mL.

B9: cIL-13Rα2-cIgGB-Fc-YD CH2 Numbering (L18Y/T22D) (Fc fusion)
chain: SMLSNAEIKVNPPQDFEIVDPGYLGYLSLQWQPPLFPDNFKECTIEYELKYRNIDSENWKTIITKNLHYKDGFDLNKGIEAKINTLLPAQCTNGSEVRSSWAETTYWTSPQGNRETKIQDMDCVYYNWQYLVCSWKPGMGVHFDTNYQLFYWYEGLDHSAECTDYIKVNGKNMGCRFPYLESSDYKDFYICVNGSSESQPIRPSYFIFQLQNIVKPMPPDYLSLTVKNSEEINLKWNMPKGPIPAKCFIYEIEFTEDGTTWVTTTVENEIQITRTSNESQKLCFLVRSKVNIYCSDDGIWSEWSDEQCWKGDIWKETPKRENGRVPRPPDCPKCPAPEMLGGPSVFIFPPKPKDTLYIARDPEVTCVVVDLDPEDPEVQISWFVDGKQMQTAKTQPREEQFNGTYRVVSVLPIGHQDWLKGKQFTCKVNNKALPSPIERTISKARGQAHQPSVYVLPPSREELSKNTVSLTCLIKDFFPPDIDVEWQSNGQQEPESKYRTTPPQLDEDGSYFLYSKLSVDKSRWQRGDTFICAVMHEALHNHYTQESLSHSPGK
notes: Homodimer; also called cIL-13Rα2-cFc-YD
As for B9, in the assay with canine IL-13, the “factor of decrease of KD against the unmodified cIL-13Rα2-cFc” value was around 2 fold lower KD.

B10: cIL-13Rα2-cIgGB-Fc-YTE CH2 Numbering (L18Y/A20T/T22E) (Fc fusion)
chain: SMLSNAEIKVNPPQDFEIVDPGYLGYLSLQWQPPLFPDNFKECTIEYELKYRNIDSENWKTIITKNLHYKDGFDLNKGIEAKINTLLPAQCTNGSEVRSSWAETTYWTSPQGNRETKIQDMDCVYYNWQYLVCSWKPGMGVHFDTNYQLFYWYEGLDHSAECTDYIKVNGKNMGCRFPYLESSDYKDFYICVNGSSESQPIRPSYFIFQLQNIVKPMPPDYLSLTVKNSEEINLKWNMPKGPIPAKCFIYEIEFTEDGTTWVTTTVENEIQITRTSNESQKLCFLVRSKVNIYCSDDGIWSEWSDEQCWKGDIWKETPKRENGRVPRPPDCPKCPAPEMLGGPSVFIFPPKPKDTLYITREPEVTCVVVDLDPEDPEVQISWFVDGKQMQTAKTQPREEQFNGTYRVVSVLPIGHQDWLKGKQFTCKVNNKALPSPIERTISKARGQAHQPSVYVLPPSREELSKNTVSLTCLIKDFFPPDIDVEWQSNGQQEPESKYRTTPPQLDEDGSYFLYSKLSVDKSRWQRGDTFICAVMHEALHNHYTQESLSHSPGK
notes: Homodimer; also called cIL-13Rα2-cFc-YTE
Regarding B10, the “factor of decrease of KD against the unmodified cIL-13Rα2-cFc” value in the assay with canine IL-13 was around 2 fold lower KD.

B11: Caninized 28F12 H1k3 (antibody, V domains shown)
VH: EVQLVESGGDLVKPGGSLRLSCVASGFTFSDYYMAWVRQAPGKGLQWVATISYDGSSTYYRDSVRGRFTISRDNAKNTLYLQMNSLRAEDTAMYYCAKGPLTDWAPNWFAYWGQGTLVTVSS
VL: DIVMTQSPASLSLSQEEKVTITCQTSEDIYSGLAWYQQKPGQAPKLLIYGASRLEDGVPSRFSGSGSGTDFSFTISSLEPEDVAVYFCQQGLKYPNTFGAGTKVELKR
Consider B11, for which the EC50 with canine IL-31Rα (canine) [1] is 1.74 ng/mL.

B12: Caninized 28F12 H2k2 (antibody, V domains shown)
VH: EVQLVESGGDLVKPGGSLRLSCAASGFTFSDYYMAWVRQAPGKGLQWVATISYDGSSTYYRDSVRGRFTISRDNAKNTLYLQMNSLRAEDTAMYYCARGPLTDWAPNWFAYWGQGTLVTVSS
VL: EIVMTQSPASLSLSQEEKVTITCQTSEDIYSGLAWYQQKPGQAPKLLIYGASRLEDGVPSRFSGSGSGTDFSFTISSLEPEDVAVYYCQQGLKYPNTFGAGTKVELKR
B12 gave an EC50 in the assay with canine IL-31Rα (canine) [1] of 1.74 ng/mL.

B13: Caninized 28F12 H2k3 (antibody, V domains shown)
VH: EVQLVESGGDLVKPGGSLRLSCAASGFTFSDYYMAWVRQAPGKGLQWVATISYDGSSTYYRDSVRGRFTISRDNAKNTLYLQMNSLRAEDTAMYYCARGPLTDWAPNWFAYWGQGTLVTVSS
VL: DIVMTQSPASLSLSQEEKVTITCQTSEDIYSGLAWYQQKPGQAPKLLIYGASRLEDGVPSRFSGSGSGTDFSFTISSLEPEDVAVYFCQQGLKYPNTFGAGTKVELKR
In turn, B13 gave a concentration for a half-maximal effect (EC50) with canine IL-31Rα (canine) [1] of 1.74 ng/mL.
